Reference: patent US20140322196A1

How the values were obtained:
Experiment in all cases: cell-based or functional assay
[1] = target: Hemagglutinin (HA) of Influenza A virus A/Parma/24/09 (Brisbane-like) (oseltamivir-resistant) H1N1 (Influenza A virus A/Parma/24/09 H1N1)
[2] = target: Hemagglutinin (HA) of Influenza A virus A/Solomon 3/2006 H1N1 (inactivated subunits, vaccine) (Influenza A virus A/Solomon 3/2006 H1N1)
[3] = target: Hemagglutinin (HA) of Influenza A virus A/Wisconsin/67/2005 H3N2 (inactivated subunits, vaccine) (Influenza A virus A/Wisconsin/67/2005 H3N2)

Substance	HI titre [1] [pM]	HI titre [2] [fM]	HI titre [3] [fM]
Lactoferrin from bovine milk (bLf) (from UniProt P24627 20-708)	6000	5000	300
… (SEQ ID NO: 1), bLf C-lobe peptide 418-429	1.4	46.5	23.2
… (SEQ ID NO: 2), bLf C-lobe peptide 506-522	1.4	46.5	11.6
